Test results from the supplement of paper PMC7125110.
± gives the standard error. For part of these data: Variants at the floor of the assay were thinned out.

B1: glmS ribozyme (parent)
chain: AUAAAAGCGCCAGAACUACAGAAAUGUAGUUGACGAGGAGGAGGUUUAUCGAAUUUUCGGCGGAUGCCUCCAAA

Columns and labels:
Settings in all cases: with glucosamine-6-phosphate
glucosamine-6-phosphate [1] = variants of: B1; experiment: kcat; higher = faster cleavage; RNA array
How it was run: (§1)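 On sequenced MiSeq chips, barcoded ribozyme variants were made in situ by E. coli RNA polymerase and followed at 37 °C through a hybridised Cy3 probe. Glucosamine-6-phosphate was flowed in at 40 μM to 10 mM in HEPES/KCl/Mg(OAc)2 buffer. Exponential fits to normalised per-tile medians gave kobs, and weighted Michaelis–Menten fits gave kcat and KM.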

glucosamine-6-phosphate [2] = variants of: B1; experiment: KM; higher = weaker cofactor use; RNA array
How it was run: as §1

glucosamine-6-phosphate [3] = variants of: B1; experiment: self-cleavage kobs at 40 uM GlcN6P; higher = faster cleavage; RNA array
How it was run: as §1

glucosamine-6-phosphate [4] = variants of: B1; experiment: self-cleavage kobs at 160 uM GlcN6P; higher = faster cleavage; RNA array
How it was run: as §1

glucosamine-6-phosphate [5] = variants of: B1; experiment: self-cleavage kobs at 640 uM GlcN6P; higher = faster cleavage; RNA array
How it was run: as §1

glucosamine-6-phosphate [6] = variants of: B1; experiment: self-cleavage kobs at 2500 uM GlcN6P; higher = faster cleavage; RNA array
How it was run: as §1

glucosamine-6-phosphate [7] = variants of: B1; experiment: self-cleavage kobs at 10000 uM GlcN6P; higher = faster cleavage; RNA array
How it was run: as §1

Variant	kcat (glucosamine-6-phosphate [1]) [s⁻¹]	KM (glucosamine-6-phosphate [2]) [µM]	self-cleavage kobs at 40 uM GlcN6P (glucosamine-6-phosphate [3]) [s⁻¹]	self-cleavage kobs at 160 uM GlcN6P (glucosamine-6-phosphate [4]) [s⁻¹]	self-cleavage kobs at 640 uM GlcN6P (glucosamine-6-phosphate [5]) [s⁻¹]	self-cleavage kobs at 2500 uM GlcN6P (glucosamine-6-phosphate [6]) [s⁻¹]	self-cleavage kobs at 10000 uM GlcN6P (glucosamine-6-phosphate [7]) [s⁻¹]
A14U G66A	0.00402 ± 0.0012	2120 ± 870	0.000107 ± 1.8e-05	0.000254 ± 3.9e-05	0.00104 ± 0.00029	0.00172 ± 0.0003	0.00403 ± 0.00059
A53C U56G	0.00299 ± 0.00066	1830 ± 570	7.77e-05 ± 1.1e-05	0.000166 ± 4.2e-05	0.000851 ± 0.00012	0.00165 ± 0.00035	0.00254 ± 0.00039
A12U A36U	2.03e-05 ± 6.7e-07	2080 ± 230					
U49A C70G	1.43e-05 ± 3.7e-06						
A15C G29C G37A C61U	< 1e-05						
G13A G40A	0.000179 ± 1.9e-05	6100 ± 1200				5.48e-05 ± 1.2e-05	0.00011 ± 1.8e-05
G29U U54A U65A	0.000347 ± 8.3e-05			8.02e-05 ± 2.9e-05	0.000149 ± 2.1e-05	0.000241 ± 3.4e-05	0.000456 ± 0.00011
A14U U55C	0.00666 ± 0.0014	1760 ± 500	0.000181 ± 2.3e-05	0.000488 ± 8.3e-05	0.00161 ± 0.00025	0.00352 ± 0.00053	0.0066 ± 0.001
G7U A36C A48U	< 1e-05				< 1e-05		
G41A U45A	0.000317 ± 4.9e-05	140 ± 59	9.19e-05 ± 1.9e-05	0.000128 ± 3e-05	0.000296 ± 5.5e-05	0.000354 ± 8.1e-05	0.000299 ± 5.4e-05
G41A U45G	0.000391 ± 0.00013		2.84e-05 ± 1.3e-05	3e-05 ± 1.3e-05	0.000144 ± 2.4e-05	0.000565 ± 0.0001	0.000304 ± 5.2e-05
G13C A14C C61A C67U	3.08e-05 ± 1.3e-05				4.47e-05 ± 1.8e-05		
A14C A53G	0.00897 ± 0.0044		0.00012 ± 1.8e-05	0.000245 ± 3.7e-05	0.00116 ± 0.00015	0.0024 ± 0.00037	0.00721 ± 0.001
U65A C67A	9.68e-05 ± 1.3e-05		5.89e-05 ± 6.3e-06	9.4e-05 ± 8.1e-06	8.78e-05 ± 7.6e-06		
A36C C71A	< 1e-05						
G37U U49A C61G C70G	2.13e-05 ± 6.5e-06						
A48C U55A	0.000411 ± 0.0001	2110 ± 920			8.73e-05 ± 1.8e-05	0.000276 ± 4.6e-05	0.000272 ± 8.7e-05
C8G C61A	< 1e-05		< 1e-05	< 1e-05		< 1e-05	
